Reference: patent WO2010047829A1

Biological target: E1E2 (isolate H77), produced by transfected 293T cells (hepatitis C virus isolate H77 (genotype 1a)) (UniProt P27958)
Test: cell-based or functional assay

## MAb AR3B (antibody)
  IC50 titer, neutralization of HCVpp-H77: 1 µg/mL

## MAb AR3A (antibody)
  IC50 titer, neutralization of HCVpp-H77: 0.4 µg/mL
